# From US20250304712A1 (published 2025)
# T1: recombinant LY6K protein with histidine and Strep tags (human, UniProt Q17RY6 18-138)
# T1 chain: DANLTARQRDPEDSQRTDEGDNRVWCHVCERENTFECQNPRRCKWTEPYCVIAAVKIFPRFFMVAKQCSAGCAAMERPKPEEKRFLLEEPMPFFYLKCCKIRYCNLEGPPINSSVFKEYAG
# B1: murine anti-LY6K antibody 22C-G8 (antibody, V domains shown)
# VH: QVQLQQPGAELAKPGASVKLSCKTSGYTFTSYWMHWVKQRPGQGFEWIGEINPSNGGANYNEKFKRKATLTVDKSSSTAYMQLRSLTSEDSAVYYCTMGGNFFFAYWGQGTSVTVSS
# VL: not shown
# B2: murine anti-LY6K antibody 28C1 (antibody, V domains shown)
# VH: QIQLVQSGPELKKPGETVKISCKTSGYTFTNFAMNWVKQTPGKGLRYMGWINTNTGEPTYVEEFKGRFAFSLETSASTAYLQISNLKNEDTATYFCTREWRRSYYFDYWGQGTSLTVSS
# VL: DIQMTQTPLSLPVSLGDQASISCRSSQTILHSNGNTYLEWYLQKPGQSLKLLIYKVSNRLSGVPDRFSGSGSGTDFTLKISRVEAEDLGVYYCFQGSHDPFTFGSGTKLE
# B3: murine anti-LY6K antibody G57 (antibody, V domains shown)
# VH: EVQLVESGGDLVKPGGSLKLSCAASGFTFNSYGMSWVRQTPDKRLEWVATISSGGTYTYYSDSVKGRFTISRDNAKNILYLHMSSLKSEDTAMYYCARHDWDFFDYWGQGTTLTVSS
# VL: DVVMTQTPLSLPVSLGDQASISCRSSQSLVHTDGDTYLNWYLQKPGQSPKLLIYKVSNRFSGVPDRFSGSGSGTDFTLKIRRVEAEDLGVYFCSQNTHVYTFGGGTKLE
# Molecular target: T1, recombinant LY6K protein with histidine …
# Experiment: QCM
row,Kd [pM],Binder
1,243,B1
2,612,B2
3,1340,B3
